Reference: patent US20060029546A1, “Materials and methods for identifying anti-schizophrenic agents” (deCODE Genetics, Inc., priority 2004, published 2006)

Tests used:
Fyn [1] = assay: Fyn phosphorylation in HEK293 cells stably expressing ErbB4 and Fyn-V5 (Western blot); type: cell-based
Method: (§1) To determine whether NRG1-induced activation of ErbB4 leads to Fyn phosphorylation, NRG1 exposure of HEK293 cells stably expressing ErbB4 and Fyn-V5 were activated with 7.2 nM NRG1 (R&D Systems; Minneapolis, Minn.) for 10 minutes and lysed using RIPA buffer. […] There was no change in Fyn Tyr531 phosphorylation. […] Fyn is activated either by dephophorylation of Tyr531 with loss of the SH2 domain interaction, or through displacement of the SH2 domain by a second tyrosine phosphorylated binding partner allowing auto-phosphorylation on the Fyn activation loop residue Tyr420. Alternatively, Fyn can be phosphorylated on Tyr420 and activated directly by a second kinase. Thus, the NRG1-stimulated increase in Fyn Tyr420 phosphorylation may be through stimulation of Fyn auto-phosphorylation, through phosphorylation of Fyn by ErbB4, or through phosphorylation of Fyn by an ErbB4 activated tyrosine kinase other than Fyn.
These alternatives were distinguished by applying PP2 (25 nM; Calbiochem, San Diego, Calif.) a relatively selective Src-family kinase inhibitor, to inhibit Fyn while ErbB4 signaling was stimulated with NRG1. […] Fyn was phosphorylated at a low level on Tyr420 under basal conditions. […] After NRG1 stimulation, an increase in Fyn Tyr420 phosphorylation was seen, even under conditions in which PP2 was used to inhibit p59 Fyn autophosphorylation. […] Thus, ErbB4 or an ErbB4 activated tyrosine kinase may phosphorylate Fyn on Tyr420 in response to NRG1 stimulation and activate the kinase directly.

ErbB4 [2] = assay: ErbB4 tyrosine phosphorylation in HEK293 cells (Western blot); type: cell-based; details: HEK293 cells expressing ErbB4 and Fyn-V5, 7.2 nM NRG1 for 10 minutes
Method: as §1
Thus, NRG1-induced ErbB4 phosphorylation under conditions in which Fyn and related Src-family kinases were inhibited by PP2 (selective Src-family kinase inhibitor described above). […] This may result in the creation of additional SH2 domain docking sites, thus leading to further activation of Fyn as part of a positive feedback mechanism involving NRG1, ErbB4 and Src-family kinases.

MAPK p44/42 = MAPK p44/42 activation in HEK293 cells stably expressing ErbB4 and Fyn-V5; type: cell-based; details: 7.2 nM NRG1 for 10 minutes
ErbB4 [3] = assay: ErbB4 tyrosine phosphorylation and kinase activity in CHO-K1 cells expressing ErbB4; type: cell-based
Method: The initial step of NRG1 signaling is activation of ErbB4 kinase activity and auto-phosphorylation on tyrosine residues. An increase in ErbB4 tyrosine phosphorylation and associated kinase activity was observed when CHO-K1 cells (ECACC Accession No. 85051005) expressing ErbB4 were exposed to NRG1 (recombinant human HRG-αEGF domain; R&D Systems, Minneapolis, Minn.) in serum free medium for 0-15 minutes. Following immunoprecipitation of ErbB4, kinase activity was measured using a peptide substrate. Maximum ErbB4 kinase activity was detected within 1 minute of NRG1 exposure but returned to the pre-stimulation level by 15 minutes.
Target sequence in this assay (Q15303 26-1308): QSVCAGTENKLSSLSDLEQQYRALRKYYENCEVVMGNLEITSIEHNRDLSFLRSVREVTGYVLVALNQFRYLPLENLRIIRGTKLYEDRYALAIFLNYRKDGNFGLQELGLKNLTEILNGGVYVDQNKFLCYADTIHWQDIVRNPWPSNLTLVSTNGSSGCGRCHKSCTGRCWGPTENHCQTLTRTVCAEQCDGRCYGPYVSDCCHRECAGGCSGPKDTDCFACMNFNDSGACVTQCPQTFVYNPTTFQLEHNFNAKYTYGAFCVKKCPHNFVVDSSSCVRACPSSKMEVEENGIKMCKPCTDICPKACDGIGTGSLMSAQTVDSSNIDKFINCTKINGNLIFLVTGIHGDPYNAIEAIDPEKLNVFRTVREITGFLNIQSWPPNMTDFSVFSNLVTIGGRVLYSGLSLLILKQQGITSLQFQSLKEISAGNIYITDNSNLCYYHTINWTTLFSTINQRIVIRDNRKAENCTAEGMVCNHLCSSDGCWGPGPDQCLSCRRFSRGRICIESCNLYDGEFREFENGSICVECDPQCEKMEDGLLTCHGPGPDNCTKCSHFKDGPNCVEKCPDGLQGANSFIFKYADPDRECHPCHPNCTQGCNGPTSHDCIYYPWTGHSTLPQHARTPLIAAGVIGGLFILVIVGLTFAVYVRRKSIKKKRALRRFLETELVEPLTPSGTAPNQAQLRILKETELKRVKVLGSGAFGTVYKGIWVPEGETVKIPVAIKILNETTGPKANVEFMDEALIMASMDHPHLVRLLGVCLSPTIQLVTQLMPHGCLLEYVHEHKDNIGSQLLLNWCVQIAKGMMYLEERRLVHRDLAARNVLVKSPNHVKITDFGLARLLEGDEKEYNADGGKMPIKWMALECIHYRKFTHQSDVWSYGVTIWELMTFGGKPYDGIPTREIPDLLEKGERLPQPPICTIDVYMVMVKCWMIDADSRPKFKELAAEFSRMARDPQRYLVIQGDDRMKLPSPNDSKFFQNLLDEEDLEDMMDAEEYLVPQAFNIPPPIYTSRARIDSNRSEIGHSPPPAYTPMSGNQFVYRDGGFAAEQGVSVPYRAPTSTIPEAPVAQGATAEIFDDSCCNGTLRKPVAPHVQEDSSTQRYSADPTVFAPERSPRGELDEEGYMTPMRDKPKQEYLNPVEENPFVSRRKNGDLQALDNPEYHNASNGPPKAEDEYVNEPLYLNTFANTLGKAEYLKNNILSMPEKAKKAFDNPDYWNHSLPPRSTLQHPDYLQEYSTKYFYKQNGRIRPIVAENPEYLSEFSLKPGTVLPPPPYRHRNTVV

Fyn [4] = assay: Fyn kinase activity after NRG1 stimulation of cells; type: cell-based
Method: To test if the observed increase in Fyn Tyr420 phosphorylation was associated with enhanced catalytic activity, Fyn kinase activity was measured after NRG1 stimulation. Fyn kinase activity was increased within 5 minutes of NRG1 stimulation, reached maximum activity after 7 minutes, and returned to pre-stimulation levels within 15 minutes.

[5] = test system: MAPK pathway (serum response element luciferase reporter); assay: SRE-luciferase reporter gene assay in CHO-K1 cells expressing ErbB4 or ErbB4 and Fyn; type: cell-based
Method: CHO-K1 cells expressing only ErbB4 were constructed, and subsequently a subclone co-expressing Fyn was identified. The parental ErbB4 expressing cell line and the subclone co-expressing ErbB4 and Fyn continued to express similar levels of ErbB4 as shown by Western blot. The cells also contained a reporter gene sensitive to MAPK pathway activation, the luciferase gene under the control of a promoter containing a serum response element (SRE). The cells were activated for 4 hours with 0-57.6 nM and the luciferase assay was performed using the Dual-Luciferase Reported assay system (Promega, Madison, Wis.) according to the manufacturer's instructions. Induction of the luciferase reporter gene by NRG1 was amplified two-fold (p<0.05) in cells co-expressing ErbB4 and Fyn as compared to cells expressing only ErbB4. No significant differences in baseline luciferase activity or in NRG1 EC50 (˜1 nM) were found between the two cell lines.

ErbB4 [6] = biological target: T1, ErbB4 (Homo sapiens, UniProt Q15303); assay: ErbB4 tyrosine phosphorylation in differentiated BE(2)-M17 neuroblastoma cells; type: cell-based; details: stimulation for 10 minutes
T1 construct: host or cells: BE(2)-M17 neuroblastoma, retinoic-acid differentiated
Method: (§2) Studies were carried out to determine if NRG1 signaling, mediated by activation of Src-family kinases, results in changes in the phosphorylation state of regulatory tyrosine residues on NR2B. BE(2)-M 17 human neuroblastoma cells (ECACC No. 95011816) have a neuron-like appearance after differentiation for 72 hours in the presence of 10 μM retinoic acid (RA; Sigma, St. Louis, Mo.) (Hanada et al., Can. Res. 53: 4978-4986, 1993). […] As RA differentiation induces NR2B, but not NR2A, expression, it was expected that the functional NMDA receptor channels expressed in these cells comprised of NR1 and NR2B subunits. Stimulation of differentiated BE(2)-M17 cells with NRG1 for 10 minutes increased ErbB4 tyrosine phosphorylation (FIG. 2), increased Fyn/Src Tyr420 phosphorylation (indicative of increased Src-family kinase activity), and increased Pyk2 Tyr402 phosphorylation. Pyk2 Tyr402 is an auto-phosphorylation site involved in Src-family kinase recruitment (Dikic et al., Nature 383: 547-550, 1996). In addition, a coincident increase in NR2B Tyr1472 phosphorylation was also observed (FIG. 2). Thus, NRG1 signaling through ErbB4 modulates NR2B tyrosine phosphorylation in neuroblastoma cells.

Fyn/Src = Fyn/Src Tyr420 phosphorylation in differentiated BE(2)-M17 neuroblastoma cells; type: cell-based, human; details: stimulation for 10 minutes
Method: as §2

Pyk2 = Pyk2 Tyr402 phosphorylation in differentiated BE(2)-M17 neuroblastoma cells; type: cell-based, human; details: stimulation for 10 minutes
Method: as §2

NR2B = NR2B Tyr1472 phosphorylation in differentiated BE(2)-M17 neuroblastoma cells; type: cell-based, human; details: stimulation for 10 minutes
Method: as §2

[7] = test system: NMDA receptor NR2B subunit; assay: NR2B tyrosine phosphorylation in SK-N-BE(2)-M17 cells grown with retinoic acid; type: cell-based; details: immunoprecipitation, anti-phosphotyrosine Western blot
Method: To determine if D150838 modulates tyrosine phosphorylation of the NMDA receptor, SK-N-BE(2)-M17 cells were grown for 72 house in the presence of retinoic acid to induce expression of the NMDA receptor NR2B subunit. The cells were contacted with NRG1 or D150838, the NR2B subunit was immunoprecipitated, and the level of tyrosine phosphorylation was detected by Western blot analysis with an anti-phosphotyrosine antibody. […] Phosphorylation of tyrosine residue 1472 was detected after exposure to D150838.

Sequence of Fyn (P06241 whole entry, species assumed, the tested form may be a part): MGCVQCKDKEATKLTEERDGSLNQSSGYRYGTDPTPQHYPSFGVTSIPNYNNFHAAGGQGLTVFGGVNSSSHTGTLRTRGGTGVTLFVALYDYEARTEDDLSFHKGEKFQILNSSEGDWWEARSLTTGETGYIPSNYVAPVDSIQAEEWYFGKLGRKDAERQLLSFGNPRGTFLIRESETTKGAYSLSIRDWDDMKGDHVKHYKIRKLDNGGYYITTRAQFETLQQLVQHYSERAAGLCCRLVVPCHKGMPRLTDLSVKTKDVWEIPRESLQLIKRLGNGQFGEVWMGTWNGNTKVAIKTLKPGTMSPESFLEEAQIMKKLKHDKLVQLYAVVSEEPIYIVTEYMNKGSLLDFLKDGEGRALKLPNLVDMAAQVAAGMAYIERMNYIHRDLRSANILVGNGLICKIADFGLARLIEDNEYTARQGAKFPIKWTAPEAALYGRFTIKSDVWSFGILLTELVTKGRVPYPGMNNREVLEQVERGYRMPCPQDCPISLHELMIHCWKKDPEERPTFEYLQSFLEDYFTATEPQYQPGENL
T1 sequence (Q15303 26-1308): as the sequence (Q15303 26-1308) above

B1: NRG1: recombinant human HRG-αEGF domain; R&D Systems; polypeptide growth factor Neuregulin 1 (protein)
chain: SHLVKCAEKEKTFCVNGGECFMVKDLSNPSRYLCKCQPGFTGARCTENVPMKVQNQEKAEELYQK
- Fyn Tyr420 phosphorylation (Fyn [1]; 7.2 nM NRG1 for 10 minutes): phosphorylation of Fyn on Tyr420
- Fyn Tyr531 phosphorylation (Fyn [1]; 7.2 nM NRG1 for 10 minutes): no change
- Fyn Tyr420 phosphorylation after NRG1 stimulation with PP2 present (Fyn [1]; PP2 used to inhibit Fyn autophosphorylation): increase
- ErbB4 tyrosine phosphorylation (ErbB4 [2]): tyrosine phosphorylation of ErbB4
- MAPK p44/42 Thr202/Tyr204 phosphorylation (MAPK p44/42): increase
- time of return of ErbB4 kinase activity to pre-stimulation level (ErbB4 [3]; after NRG1 exposure): ≤ 15 min
- time to maximum ErbB4 kinase activity (ErbB4 [3]; after NRG1 exposure): ≤ 1 min
- ErbB4 tyrosine phosphorylation and associated kinase activity (ErbB4 [3]; serum free medium, 0-15 minutes): increase
- time of maximum Fyn kinase activity (Fyn [4]; after NRG1 stimulation): 7 min
- time of return of Fyn kinase activity to pre-stimulation levels (Fyn [4]; after NRG1 stimulation): ≤ 15 min
- time to increased Fyn kinase activity (Fyn [4]; after NRG1 stimulation): ≤ 5 min
- Fyn kinase activity (Fyn [4]; cells co-expressing Fyn and catalytically inactive ErbB4 D843A mutant): No increase
- EC50 ([5]; 4 hours, 0-57.6 nM, no significant difference between the two cell lines, read-out: EC50, luciferase reporter induction): ~1 nM
- amplification of luciferase reporter induction in cells co-expressing ErbB4 and Fyn compared to cells expressing only ErbB4 ([5]; p<0.05): two-fold
- ErbB4 tyrosine phosphorylation (ErbB4 [6]): increased
- Fyn/Src Tyr420 phosphorylation (Fyn/Src): increased
- Pyk2 Tyr402 phosphorylation (Pyk2): increased
- NR2B Tyr1472 phosphorylation (NR2B): increase
- tyrosine phosphorylation of the NR2B subunit [7]: induced tyrosine phosphorylation
